According to US20230407373A1 (priority 2020, published 2023):

Columns and labels:
[1] = system: HCoV-OC43 gRNA and sgRNA; assay type: binding; conditions: for target (unweighted spectral count): OC43 Probe II, 12 hpi (type n_12_v), infected cells, tested against no-probe control
[2] = system: gRNA of HCoV-OC43; assay type: binding; conditions: for background (spectral count, no-probe control) / target (spectral count, OC43 Probe I RNP capture): type n_48_v: 48 hours post-infection; for background (spectral count, no-probe control): no-probe control on infected cells; for target (spectral count, OC43 Probe I RNP capture): infected cells, unweighted spectral count; for target (spectral count) / background (spectral count): type g_36_m, 36 hpi, Probe I; for target (spectral count): HCoV-OC43-infected HCT-8 cells; for background (spectral count): uninfected-probe control

B1: TMPO (protein, UniProt P42166 2-694, looked up)
Lamina-associated polypeptide …: PEFLEDPSVLTKDKLKSELVANNVTLPAGEQRKDVYVQLYLQHLTARNRPPLPAGTNSKGPPDFSSDEEREPTPVLGSGAAAAGRSRAAVGRKATKKTDKPRQEDKDDLDVTELTNEDLLDQLVKYGVNPGPIVGTTRKLYEKKLLKLREQGTESRSSTPLPTISSSAENTRQNGSNDSDRYSDNEEGKKKEHKKVKSTRDIVPFSELGTTPSGGGFFQGISFPEISTRPPLGSTELQAAKKVHTSKGDLPREPLVATNLPGRGQLQKLASERNLFISCKSSHDRCLEKSSSSSSQPEHSAMLVSTAASPSLIKETTTGYYKDIVENICGREKSGIQPLCPERSHISDQSPLSSKRKALEESESSQLISPPLAQAIRDYVNSLLVQGGVGSLPGTSNSMPPLDVENIQKRIDQSKFQETEFLSPPRKVPRLSEKSVEERDSGSFVAFQNIPGSELMSSFAKTVVSHSLTTLGLEVAKQSQHDKIDASELSFPFHESILKVIEEEWQQVDRQLPSLACKYPVSSREATQILSVPKVDDEILGFISEATPLGGIQAASTESCNQQLDLALCRAYEAAASALQIATHTAFVAKAMQADISQAAQILSSDPSRTHQALGILSKTYDAASYICEAAFDEVKMAAHTMGNATVGRRYLWLKDCKINLASKNKLASTPFKGGTLFGGEVCKVIKKRGNKH
- target (unweighted spectral count) [1]: 4

B2: HNANPF (protein, UniProt P52597 1-415, looked up)
Heterogeneous nuclear …: MMLGPEGGEGFVVKLRGLPWSCSVEDVQNFLSDCTIHDGAAGVHFIYTREGRQSGEAFVELGSEDDVKMALKKDRESMGHRYIEVFKSHRTEMDWVLKHSGPNSADSANDGFVRLRGLPFGCTKEEIVQFFSGLEIVPNGITLPVDPEGKITGEAFVQFASQELAEKALGKHKERIGHRYIEVFKSSQEEVRSYSDPPLKFMSVQRPGPYDRPGTARRYIGIVKQAGLERMRPGAYSTGYGGYEEYSGLSDGYGFTTDLFGRDLSYCLSGMYDHRYGDSEFTVQSTTGHCVHMRGLPYKATENDIYNFFSPLNPVRVHIEIGPDGRVTGEADVEFATHEEAVAAMSKDRANMQHRYIELFLNSTTGASNGAYSSQVMQGMGVSAAQATYSGLESQSVSGCYGAGYSGQNSMGGYD
- background (spectral count, no-probe control) [2]: 4

B3: SNW1 (protein, UniProt Q13573 2-536, looked up)
SNW domain-containing protein …: ALTSFLPAPTQLSQDQLEAEEKARSQRSRQTSLVSSRREPPPYGYRKGWIPRLLEDFGDGGAFPEIHVAQYPLDMGRKKKMSNALAIQVDSEGKIKYDAIARQGQSKDKVIYSKYTDLVPKEVMNADDPDLQRPDEEAIKEITEKTRVALEKSVSQKVAAAMPVRAADKLAPAQYIRYTPSQQGVAFNSGAKQRVIRMVEMQKDPMEPPRFKINKKIPRGPPSPPAPVMHSPSRKMTVKEQQEWKIPPCISNWKNAKGYTIPLDKRLAADGRGLQTVHINENFAKLAEALYIADRKAREAVEMRAQVERKMAQKEKEKHEEKLREMAQKARERRAGIKTHVEKEDGEARERDEIRHDRRKERQHDRNLSRAAPDKRSKLQRNENRDISEVIALGVPNPRTSNEVQYDQRLFNQSKGMDSGFAGGEDEIYNVYDQAWRGGKDMAQSIYRPSKNLDKDMYGDDLEARIKTNRFVPDKEFSGSDRRQRGREGPVQFEEDPFGLDKFLEEAKQHGGSKRPSDSSRPKEHEHEGKKRRKE
- target (spectral count, OC43 Probe I RNP capture) [2]: 5
- background (spectral count, no-probe control) [2]: 1

B4: MSN (protein, UniProt P26038 2-577, looked up)
Moesin: PKTISVRVTTMDAELEFAIQPNTTGKQLFDQVVKTIGLREVWFFGLQYQDTKGFSTWLKLNKKVTAQDVRKESPLLFKFRAKFYPEDVSEELIQDITQRLFFLQVKEGILNDDIYCPPETAVLLASYAVQSKYGDFNKEVHKSGYLAGDKLLPQRVLEQHKLNKDQWEERIQVWHEEHRGMLREDAVLEYLKIAQDLEMYGVNYFSIKNKKGSELWLGVDALGLNIYEQNDRLTPKIGFPWSEIRNISFNDKKFVIKPIDKKAPDFVFYAPRLRINKRILALCMGNHELYMRRRKPDTIEVQQMKAQAREEKHQKQMERAMLENEKKKREMAEKEKEKIEREKEELMERLKQIEEQTKKAQQELEEQTRRALELEQERKRAQSEAEKLAKERQEAEEAKEALLQASRDQKKTQEQLALEMAELTARISQLEMARQKKESEAVEWQQKAQMVQEDLEKTRAELKTAMSTPHVAEPAENEQDEQDENGAEASADLRADAMAKDRSEEERTTEAEKNERVQKHLKALTSELANARDESKKTANDMIHAENMRLGRDKYKTLRQIRQGNTKQRIDEFESM
- target (spectral count, OC43 Probe I RNP capture) [2]: 5
- background (spectral count, no-probe control) [2]: 1

B5: DBX3X: host protein, UniProt O00571 (protein, UniProt O00571 2-662, looked up)
ATP-dependent RNA helicase …: SHVAVENALGLDQQFAGLDLNSSDNQSGGSTASKGRYIPPHLRNREATKGFYDKDSSGWSSSKDKDAYSSFGSRSDSRGKSSFFSDRGSGSRGRFDDRGRSDYDGIGSRGDRSGFGKFERGGNSRWCDKSDEDDWSKPLPPSERLEQELFSGGNTGINFEKYDDIPVEATGNNCPPHIESFSDVEMGEIIMGNIELTRYTRPTPVQKHAIPIIKEKRDLMACAQTGSGKTAAFLLPILSQIYSDGPGEALRAMKENGRYGRRKQYPISLVLAPTRELAVQIYEEARKFSYRSRVRPCVVYGGADIGQQIRDLERGCHLLVATPGRLVDMMERGKIGLDFCKYLVLDEADRMLDMGFEPQIRRIVEQDTMPPKGVRHTMMFSATFPKEIQMLARDFLDEYIFLAVGRVGSTSENITQKVVWVEESDKRSFLLDLLNATGKDSLTLVFVETKKGADSLEDFLYHEGYACTSIHGDRSQRDREEALHQFRSGKSPILVATAVAARGLDISNVKHVINFDLPSDIEEYVHRIGRTGRVGNLGLATSFFNERNINITKDLLDLLVEAKQEVPSWLENMAYEHHYKGSSRGRSKSSRFSGGFGARDYRQSSGASSSSFSSSRASSSRSGGGGHGSSRGFGGGGYGGFYNSDGYGGNYNSQGVDWWGN
- target (spectral count) ([1]; type s_36_m, HCoV-OC43-infected HCT-8 cells, 36 hpi, Probe II): 7
- background (spectral count) ([1]; type s_36_m, uninfected-probe control, 36 hpi, Probe II): 1

B6: ATXN2 ? (protein, UniProt Q99700 1-1313, looked up)
Ataxin-2: MRSAAAAPRSPAVATESRRFAAARWPGWRSLQRPARRSGRGGGGAAPGPYPSAAPPPPGPGPPPSRQSSPPSASDCFGSNGNGGGAFRPGSRRLLGLGGPPRPFVVLLLPLASPGAPPAAPTRASPLGARASPPRSGVSLARPAPGCPRPACEPVYGPLTMSLKPQQQQQQQQQQQQQQQQQQQQQQQPPPAAANVRKPGGSGLLASPAAAPSPSSSSVSSSSATAPSSVVAATSGGGRPGLGRGRNSNKGLPQSTISFDGIYANMRMVHILTSVVGSKCEVQVKNGGIYEGVFKTYSPKCDLVLDAAHEKSTESSSGPKREEIMESILFKCSDFVVVQFKDMDSSYAKRDAFTDSAISAKVNGEHKEKDLEPWDAGELTANEELEALENDVSNGWDPNDMFRYNEENYGVVSTYDSSLSSYTVPLERDNSEEFLKREARANQLAEEIESSAQYKARVALENDDRSEEEKYTAVQRNSSEREGHSINTRENKYIPPGQRNREVISWGSGRQNSPRMGQPGSGSMPSRSTSHTSDFNPNSGSDQRVVNGGVPWPSPCPSPSSRPPSRYQSGPNSLPPRAATPTRPPSRPPSRPSRPPSHPSAHGSPAPVSTMPKRMSSEGPPRMSPKAQRHPRNHRVSAGRGSISSGLEFVSHNPPSEAATPPVARTSPSGGTWSSVVSGVPRLSPKTHRPRSPRQNSIGNTPSGPVLASPQAGIIPTEAVAMPIPAASPTPASPASNRAVTPSSEAKDSRLQDQRQNSPAGNKENIKPNETSPSFSKAENKGISPVVSEHRKQIDDLKKFKNDFRLQPSSTSESMDQLLNKNREGEKSRDLIKDKIEPSAKDSFIENSSSNCTSGSSKPNSPSISPSILSNTEHKRGPEVTSQGVQTSSPACKQEKDDKEEKKDAAEQVRKSTLNPNAKEFNPRSFSQPKPSTTPTSPRPQAQPSPSMVGHQQPTPVYTQPVCFAPNMMYPVPVSPGVQPLYPIPMTPMPVNQAKTYRAVPNMPQQRQDQHHQSAMMHPASAAGPPIAATPPAYSTQYVAYSPQQFPNQPLVQHVPHYQSQHPHVYSPVIQGNARMMAPPTHAQPGLVSSSATQYGAHEQTHAMYACPKLPYNKETSPSFYFAISTGSLAQQYAHPNATLHPHTPHPQPSATPTGQQQSQHGGSHPAPSPVQHHQHQAAQALHLASPQQQSAIYHAGLAPTPPSMTPASNTQSPQNSFPAAQQTVFTIHPSHVQPAYTNPPHMAHVPQAHVQSGMVPSHPTAHAPMMLMTTQPPGGPQAALAQSALQPIPVSTTAHFPYMTHPSVQAHHQQQL
- target (spectral count, OC43 Probe I RNP capture) [2]: 12
- background (spectral count, no-probe control) [2]: 1

B7: RIAS: host protein, UniProt P31483 (protein, UniProt P31483 1-386, looked up)
Cytotoxic granule associated …: MEDEMPKTLYVGNLSRDVTEALILQLFSQIGPCKNCKMIMDTAGNDPYCFVEFHEHRHAAAALAAMNGRKIMGKEVKVNWATTPSSQKKDTSSSTVVSTQRSQDHFHVFVGDLSPEITTEDIKAAFAPFGRISDARVVKDMATGKSKGYGFVSFFNKWDAENAIQQMGGQWLGGRQIRTNWATRKPPAPKSTYESNTKQLSYDEVVNQSSPSNCTVYCGGVTSGLTEQLMRQTFSPFGQIMEIRVFPDKGYSFVRFNSHESAAHAIVSVNGTTIEGHVVKCYWGKETLDMINPVQQQNQIGYPQPYGQWGQWYGNAQQIGQYMPNGWQVPAYGMYGQAWNQQGFNQTQSSAPWMGPNYGVQPPQGQNGSMLPNQPSGYRVAGYETQ
- target (spectral count) [2]: 10
- background (spectral count) [2]: 1

B8: RNPS1 (protein, UniProt Q15287 1-305, looked up)
RNA-binding protein with …: MDLSGVKKKSLLGVKENNKKSSTRAPSPTKRKDRSDEKSKDRSKDKGATKESSEKDRGRDKTRKRRSASSGSSSTRSRSSSTSSSGSSTSTGSSSGSSSSSASSRSGSSSTSRSSSSSSSSGSPSPSRRRHDNRRRSRSKSKPPKRDEKERKRRSPSPKPTKVHIGRLTRNVTKDHIMEIFSTYGKIKMIDMPVERMHPHLSKGYAYVEFENPDEAEKALKHMDGGQIDGQEITATAVLAPWPRPPPRRFSPPRRMLPPPPMWRRSPPRMRRRSRSPRRRSPVRRRSRSPGRRRHRSRSSSNSSR
- target (unweighted spectral count) [1]: 7

B9: HNRNPAO: host protein, UniProt Q13151 (protein, UniProt Q13151 1-305, looked up)
Heterogeneous nuclear …: MENSQLCKLFIGGLNVQTSESGLRGHFEAFGTLTDCVVVVNPQTKRSRCFGFVTYSNVEEADAAMAASPHAVDGNTVELKRAVSREDSARPGAHAKVKKLFVGGLKGDVAEGDLIEHFSQFGTVEKAEIIADKQSGKKRGFGFVYFQNHDAADKAAVVKFHPIQGHRVEVKKAVPKEDIYSGGGGGGSRSSRGGRGGRGRGGGRDQNGLSKGGGGGYNSYGGYGGGGGGGYNAYGGGGGGSSYGGSDYGNGFGGFGSYSQHQSSYGPMKSGGGGGGGGSSWGGRSNSGPYRGGYGGGGGYGGSSF
- target (spectral count) [2]: 15
- background (spectral count) [2]: 2
